Reference: patent US20250026849A1 (ARCELLX, published 2025)

Target: T1, CD123 (Homo sapiens (Human), UniProt P26951 19-305, limits assumed)
T1 construct: The CD123 construct used in the ELISA is not described; also called CD123-Signal
T1 sequence: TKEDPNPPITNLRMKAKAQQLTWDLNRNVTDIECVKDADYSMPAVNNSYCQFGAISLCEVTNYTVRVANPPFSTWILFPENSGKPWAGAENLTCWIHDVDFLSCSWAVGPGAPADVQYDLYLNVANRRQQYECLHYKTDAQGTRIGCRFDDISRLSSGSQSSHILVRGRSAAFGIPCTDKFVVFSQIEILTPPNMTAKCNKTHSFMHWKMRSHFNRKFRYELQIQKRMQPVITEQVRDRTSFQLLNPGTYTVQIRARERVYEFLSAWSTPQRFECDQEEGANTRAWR
Assay: ELISA
Design: unit not given here

| Binder | ELISA_avg |
| --- | --- |
| D domain of SEQ ID NO: 351 (designed binder) MGSWVEFWFRLEAIDSRLWALGGSEAELAAFEKEIAAFESELQAYKGKGNPEVEWLREEAAAIREDLQAYRHN | 3.2 |
| D domain of SEQ ID NO: 414 (designed binder) MGSWFEFHDRLWAIDERLWALGGSEAELAAFEKEIAAFESELQAYKGKGNPEVEILREEAADIRLDLQAYRHN | 3.5 |
| D domain of SEQ ID NO: 355 (designed binder) MGSWYEFETRLEAIYDRLWALGGSEAELAAFEKEIAAFESELQAYKGKGNPEVELLRVEAAEIREDLQAYRHN | 3.2 |
| D domain of SEQ ID NO: 403 (designed binder) MGSWYEFWDRLDALEDRLWALGGSEAELAAFEKEIAAFESELQAYKGKGNPEVEYLRDSAAFIREELQAYRHN | 9.7 |
| D domain of SEQ ID NO: 415 (designed binder) MGSWYEFEDRLWAIDNRLWALGGSEAELAAFEKEIAAFESELQAYKGKGNPEVEELRVHAADIRDDLQAYRHN | 4.9 |
| D domain of SEQ ID NO: 353 (designed binder) MGSWSEFWQRLEAIEDRLWALGGSEAELAAFEKEIAAFESELQAYKGKGNPEVEWLRENAAMIRDELQAYRHN | 4.7 |
| D domain of SEQ ID NO: 396 (designed binder) MGSWVEFDMRLSAIWERLIALGGSEAELAAFEKEIAAFESELQAYKGKGNPEVEWLREDAAEIREFLQAYRHN | 3.3 |
| D domain of SEQ ID NO: 365 (designed binder) MGSWVEFHDRLEAIEDRLLALGGSEAELAAFEKEIAAFESELQAYKGKGNPEVEDLREYAAGIRWFLQAYRHN | 3.3 |
| D domain of SEQ ID NO: 361 (designed binder) MGSWVEFHERLEAIEDRLMALGGSEAELAAFEKEIAAFESELQAYKGKGNPEVEYLREDAAFIRQLLQAYRHN | 3.7 |
| D domain of SEQ ID NO: 413 (designed binder) MGSWFEFEDRLEAIYQRLDALGGSEAELAAFEKEIAAFESELQAYKGKGNPEVEWLRDEAAWIRSDLQAYRHN | 5.5 |
| D domain of SEQ ID NO: 363 (designed binder) MGSWIEFYDRLEAIYDRLDALGGSEAELAAFEKEIAAFESELQAYKGKGNPEVEWLREDAAFIRSWLQAYRHN | 7.5 |
| D domain of SEQ ID NO: 397 (designed binder) MGSWVEFDQRLDAIYERLYALGGSEAELAAFEKEIAAFESELQAYKGKGNPEVEWLRDEAAEIREHLQAYRHN | 10.5 |
| D domain of SEQ ID NO: 404 (designed binder) MGSWMEFVDRLDAIESRLWALGGSEAELAAFEKEIAAFESELQAYKGKGNPEVEWLRIEAAFIREELQAYRHN | 5.8 |
| D domain of SEQ ID NO: 364 (designed binder) MGSWVEFDQRLEAIYDRLYALGGSEAELAAFEKEIAAFESELQAYKGKGNPEVEWLREDAAQIRKWLQAYRHN | 5.1 |
| D domain of SEQ ID NO: 354 (designed binder) MGSWSEFITRLEAIDDRLWALGGSEAELAAFEKEIAAFESELQAYKGKGNPEVEILREEAAEIRQHLQAYRHN | 3.3 |
| D domain of SEQ ID NO: 401 (designed binder) MGSWYEFYERLDAIEERLWALGGSEAELAAFEKEIAAFESELQAYKGKGNPEVEVLRDWAAWIREDLQAYRHN | 8.4 |

| Binder | ELISA_avg |
| --- | --- |
| D domain of SEQ ID NO: 352 (designed binder) MGSWVEFWQRLEAIESRLWALGGSEAELAAFEKEIAAFESELQAYKGKGNPEVEFLREEAAEIRWELQAYRHN | 7.7 |
| D domain of SEQ ID NO: 402 (designed binder) MGSWFEFDDRLWAIENRLWALGGSEAELAAFEKEIAAFESELQAYKGKGNPEVEVLRDNAAWIREILQAYRHN | 4.2 |
| D domain of SEQ ID NO: 412 (designed binder) MGSWFEFWDRLEAIWERLDALGGSEAELAAFEKEIAAFESELQAYKGKGNPEVEELRREAAIIREDLQAYRHN | 10.3 |
| D domain of SEQ ID NO: 362 (designed binder) MGSWVEFHDRLEAIEDRLYALGGSEAELAAFEKEIAAFESELQAYKGKGNPEVEWLREDAAYIRSILQAYRHN | 4.6 |
| D domain of SEQ ID NO: 350 (designed binder) MGSWAEFEDRLWAIEDRLWALGGSEAELAAFEKEIAAFESELQAYKGKGNPEVEYLREEAAAIRFELQAYRHN | 6.2 |
| D domain of SEQ ID NO: 430 (designed binder) MGSWMEFEERLWAIDSRLWALGGSEAELAAFEKEIAAFESELQAYKGKGNPEVEWLRSEAAWIRMELQAYRHN | 3.2 |
| D domain of SEQ ID NO: 416 (designed binder) MGSWFEFQDRLWAIDNRLWALGGSEAELAAFEKEIAAFESELQAYKGKGNPEVEELRDHAAMIRWELQAYRHN | 3.2 |
| D domain of SEQ ID NO: 405 (designed binder) MGSWDEFVDRLWAIEERLWALGGSEAELAAFEKEIAAFESELQAYKGKGNPEVEELRIQAAIIREALQAYRHN | 6 |
| D domain of SEQ ID NO: 400 (designed binder) MGSWVEFYSRLDAIEDRLWALGGSEAELAAFEKEIAAFESELQAYKGKGNPEVEWLRIAAASIREDLQAYRHN | 9.4 |
| D domain of SEQ ID NO: 349 (designed binder) MGSWTEFHDRLEAIDDRLWALGGSEAELAAFEKEIAAFESELQAYKGKGNPEVEYLREEAAQIRWELQAYRHN | 5.8 |
| D domain of SEQ ID NO: 356 (designed binder) MGSWTEFYYRLEAIEDRLWALGGSEAELAAFEKEIAAFESELQAYKGKGNPEVEFLRVEAANIRDMLQAYRHN | 7.5 |
| D domain of SEQ ID NO: 442 (designed binder) MGSWVEFHMRLDAIYERLDALGGSEAELAAFEKEIAAFESELQAYKGKGNPEVEWLRTAAANIRVELQAYRHN | 9.1 |
| D domain of SEQ ID NO: 435 (designed binder) MGSWSEFNMRLDAIYERLTALGGSEAELAAFEKEIAAFESELQAYKGKGNPEVEWLRHSAARIRLELQAYRHN | 13.7 |
| D domain of SEQ ID NO: 359 (designed binder) MGSWTEFSIRLEAIYDRLVALGGSEAELAAFEKEIAAFESELQAYKGKGNPEVEVLRTYAAFIRHELQAYRHN | 10.2 |
| D domain of SEQ ID NO: 357 (designed binder) MGSWYEFVIRLEAIEDRLWALGGSEAELAAFEKEIAAFESELQAYKGKGNPEVEVLRWYAADIRHELQAYRHN | 6.4 |
| D domain of SEQ ID NO: 358 (designed binder) MGSWTEFSIRLEAIYDRLVALGGSEAELAAFEKEIAAFESELQAYKGKGNPEVEVLRTYAANIRHELQAYRHN | 11.9 |
